Experimental findings from patent US20260217863A1, “ANTIBODY OR PEPTIDE BINDING SPECIFICALLY TO RNASE A, IMMUNOASSAY DEVICE AND METHOD FOR DETECTING RNASE A, AND METHOD FOR COLLECTING RNASE A” (UIF (University Industry Foundation), Yonsei University, priority 2022, published 2026) are described below.

The target in this assay is Ribonuclease A (Type II-A) from bovine pancreas (bovine) (UniProt P61823). Briefly: cell-based or functional assay.
Ribonuclease A (Type II-A) from bovine pancreas (bovine), sequence (P61823 27-150): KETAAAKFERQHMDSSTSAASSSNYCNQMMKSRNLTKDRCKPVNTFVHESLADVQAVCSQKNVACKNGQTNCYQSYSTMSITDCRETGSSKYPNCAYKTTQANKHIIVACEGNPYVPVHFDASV

In turn, Biofact RNase inhibitor showed an IC50 for RNase A activity inhibition, HeLa total RNA cleavage, agarose gel image of 257 nM; an inhibition level, RNA probe assay (fluorophore and quencher), inhibitor at 1 µM of 35.8%.

“RNaseOUT recombinant ribonuclease inhibitor” displayed an IC50 for RNase A activity inhibition, HeLa total RNA cleavage, agarose gel image of 381 nM; an inhibition level, RNA probe assay (fluorophore and quencher), inhibitor at 1 µM of 27.2%.
